Data published in article doi:10.1101/2021.06.08.447469.

T1: MbpAgo (Mucilaginibacter paludis, UniProt H1YCU5 1-795)
T1 sequence: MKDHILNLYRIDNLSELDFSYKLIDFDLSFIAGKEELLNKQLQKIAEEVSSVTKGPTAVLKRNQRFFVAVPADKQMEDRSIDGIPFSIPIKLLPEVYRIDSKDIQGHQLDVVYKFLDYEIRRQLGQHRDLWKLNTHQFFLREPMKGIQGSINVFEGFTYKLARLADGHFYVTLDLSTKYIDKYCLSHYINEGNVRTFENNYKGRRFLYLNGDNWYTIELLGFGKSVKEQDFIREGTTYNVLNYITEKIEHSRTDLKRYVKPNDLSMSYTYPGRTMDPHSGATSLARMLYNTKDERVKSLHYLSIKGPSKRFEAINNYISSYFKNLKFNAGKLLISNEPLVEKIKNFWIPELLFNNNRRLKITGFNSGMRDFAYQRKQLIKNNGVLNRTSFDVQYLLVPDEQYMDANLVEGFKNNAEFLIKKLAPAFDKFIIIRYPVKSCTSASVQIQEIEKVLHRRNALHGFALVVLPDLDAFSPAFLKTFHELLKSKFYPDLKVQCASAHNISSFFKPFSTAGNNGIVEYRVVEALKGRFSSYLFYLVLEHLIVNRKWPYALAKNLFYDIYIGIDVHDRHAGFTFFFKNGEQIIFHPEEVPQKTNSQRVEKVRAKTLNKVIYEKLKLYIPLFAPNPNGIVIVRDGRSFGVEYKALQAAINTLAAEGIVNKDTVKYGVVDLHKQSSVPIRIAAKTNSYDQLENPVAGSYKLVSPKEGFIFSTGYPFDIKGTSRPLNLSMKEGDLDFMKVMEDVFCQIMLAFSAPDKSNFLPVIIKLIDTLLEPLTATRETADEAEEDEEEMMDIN


Molecular target: T1, MbpAgo
Test: EMSA

Row | Binder | Kd
1 | TGAGGTAGTAGGTTGTAT (ssDNA) [18 nt 5'OH-gDNA (FAM T-gDNA)] | 292 ± 25.2 nM
2 | TGAGGTAGTAGGTTGTAT (ssDNA, 5' phosphate) [18 nt 5'P-gDNA (FAM T-gDNA)] | 254 ± 23.3 nM
